Measurements: patent US10358663B2, “Method of production of 2,4-dihydroxybutyric acid” (ADISSEO FRANCE S.A.S., priority 2010, dated 2019)

Experiments:
Format in all cases: biochemical, Metallosphaera sedula
Settings in all cases: other: malate semialdehyde, pH 7.5, 30° C.
[1] = substrate: O=CC[C@H](O)C(=O)O; test: Malate semialdehyde reductase assay, Ms-SSR N43H
Protocol: (§1) Test for Malate Semialdehyde Reductase Activity: Reaction: (L)-Malate semialdehyde+NAD(P)H→(L)-2,4-dihydroxybutyric acid+NAD(P)
(§2) The assay mixture contained 200 mM Hepes (pH 7.5), 50 mM KCl, 5 mM MgCl2, 0.24 mM NADH or NADPH, and appropriate amounts of purified enzyme. Reactions were started by adding 10 mM (L)-malate semialdehyde (malate semialdehyde was prepared freshly for each test, see Example 4). Enzymatic assays were carried out at 30° C. in 96-well flat bottomed microtiter plates in a final volume of 250 μL. The reactions were followed by the characteristic absorption of NAD(P)H at 340 nm in a microplate reader (BioRad 680XR).
(§3) Site-directed mutagenesis was carried out using the oligonucleotide pairs listed in Table 8 and the pMs-SSR plasmid as the template. Point mutations to change the amino acid sequences were introduced by PCR (Phusion 1U, HF buffer 20% (v/v), dNTPs 2.5 mM, direct and reverse primers 1 μM each, template plasmid 200 ng, water). When possible, plasmids created by PCR contained new restriction sites (introduced using silent mutations) in addition to the functional mutation to facilitate identification of mutated clones. The PCR products were digested by DpnI at 37° C. for 1 h to remove template DNA, and transformed into NEB 5-alpha competent E. coli cells (NEB). […]

[2] = substrate: O=CC[C@H](O)C(=O)O; test: Malate semialdehyde reductase assay, Ms-SSR H39R N43H
Protocol: as §1, §2, §3

[3] = substrate: O=CC[C@H](O)C(=O)O; test: Malate semialdehyde reductase assay, Ms-SSR wild type
Protocol: as §1, §2

[4] = substrate: O=CC[C@H](O)C(=O)O; test: Malate semialdehyde reductase assay, Ms-SSR H39R
Protocol: as §1, §2, §3

B1: Metallosphaera sedula succinic semialdehyde reductase Ms-SSR variant N43H, SEQ ID NO: 227 (Metallosphaera sedula DSM 5348; N43H) (protein)
chain: MKAAVLHTYKEPLSIEDVNISQPKAGEVKIKVKATGLCHSDVHVFEGKTPVPPPVVAGHEISGIVEEVGPGVTRVKPGDRVISAFIHPCGKCGNCVAGKENLCETFSQVRLKGVMPDGTSRLSKDGKEIRTFLGGGFAEYAIVGENALTRVPEDMDLEKVAVLGCAGLTGYGAISSSKIEPGDTVAVIGVGGVGLSTIQLLRASGAGRIIAVGTKKWKLDRAMELGATDVVNSKEIDPVKAIKEITGGGPQVVIEAGGNEDTIHMALDSVRIGGKVVLVGLPPATAMIPIRVASIVRGGIEVVGNYGGRPRVDMPKLLELVRQGRYDPSRLVTGRFRLEEINEAVKMLEEGEAIRSLIIP
- Km [1]: 2.5 mmol/L

B2: Metallosphaera sedula succinic semialdehyde reductase Ms-SSR variant H39R N43H, SEQ ID NO: 81 (Metallosphaera sedula DSM 5348; H39R/N43H) (protein)
chain: MKAAVLHTYKEPLSIEDVNISQPKAGEVKIKVKATGLCRSDVHVFEGKTPVPPPVVAGHEISGIVEEVGPGVTRVKPGDRVISAFIHPCGKCGNCVAGKENLCETFSQVRLKGVMPDGTSRLSKDGKEIRTFLGGGFAEYAIVGENALTRVPEDMDLEKVAVLGCAGLTGYGAISSSKIEPGDTVAVIGVGGVGLSTIQLLRASGAGRIIAVGTKKWKLDRAMELGATDVVNSKEIDPVKAIKEITGGGPQVVIEAGGNEDTIHMALDSVRIGGKVVLVGLPPATAMIPIRVASIVRGGIEVVGNYGGRPRVDMPKLLELVRQGRYDPSRLVTGRFRLEEINEAVKMLEEGEAIRSLIIP
- Km [2]: 0.4 mmol/L

B3: Metallosphaera sedula succinic semialdehyde reductase Ms-SSR, wild type, SEQ ID NO: 76 (Metallosphaera sedula DSM 5348) (protein)
chain: MKAAVLHTYKEPLSIEDVNISQPKAGEVKIKVKATGLCHSDVNVFEGKTPVPPPVVAGHEISGIVEEVGPGVTRVKPGDRVISAFIHPCGKCGNCVAGKENLCETFSQVRLKGVMPDGTSRLSKDGKEIRTFLGGGFAEYAIVGENALTRVPEDMDLEKVAVLGCAGLTGYGAISSSKIEPGDTVAVIGVGGVGLSTIQLLRASGAGRIIAVGTKKWKLDRAMELGATDVVNSKEIDPVKAIKEITGGGPQVVIEAGGNEDTIHMALDSVRIGGKVVLVGLPPATAMIPIRVASIVRGGIEVVGNYGGRPRVDMPKLLELVRQGRYDPSRLVTGRFRLEEINEAVKMLEEGEAIRSLIIP
- Km [3]: 1.1 mmol/L

B4: Metallosphaera sedula succinic semialdehyde reductase Ms-SSR variant H39R, SEQ ID NO: 225 (Metallosphaera sedula DSM 5348; H39R) (protein)
chain: MKAAVLHTYKEPLSIEDVNISQPKAGEVKIKVKATGLCRSDVNVFEGKTPVPPPVVAGHEISGIVEEVGPGVTRVKPGDRVISAFIHPCGKCGNCVAGKENLCETFSQVRLKGVMPDGTSRLSKDGKEIRTFLGGGFAEYAIVGENALTRVPEDMDLEKVAVLGCAGLTGYGAISSSKIEPGDTVAVIGVGGVGLSTIQLLRASGAGRIIAVGTKKWKLDRAMELGATDVVNSKEIDPVKAIKEITGGGPQVVIEAGGNEDTIHMALDSVRIGGKVVLVGLPPATAMIPIRVASIVRGGIEVVGNYGGRPRVDMPKLLELVRQGRYDPSRLVTGRFRLEEINEAVKMLEEGEAIRSLIIP
- Km [4]: 0.5 mmol/L
